First the molecules themselves.
B1: VH4/Vκ3 (antibody, IgG4, V domains shown)
VH: EVQLLESGGGLVQPGGSLRLSCAASGFIFSSHGMSWVRQAPGKGLEWVSTISSGGTYTYYADSVKGRFTISRDNSKNTLYLQMNSLRAEDTAVYYCARHDFDYDAAWFAYWGQGTLVTVSS
VL: EIVLTQSPATLSLSPGERATLSCRANSSVSYMAWYQQKPGQAPRPWIYLTSNRATGVPARFSGSGSGTDYTLTISSLEPEDFATYYCQQWSSNPPTFGQGTKLEIK
notes: IgG4 (S241P), kappa
B2: VH4/Vκ5 (antibody, IgG4, V domains shown)
VH: B1 VH
VL: B1 VL with P45L, W46L, V57I, Y70F, T84V
notes: IgG4 (S241P), kappa
B3: VH2/Vκ3 (antibody, IgG4, V domains shown)
VH: B1 VH with S49A, A61P, V93M
VL: B1 VL
notes: IgG4 (S241P), kappa
B4: VH2/Vκ7 (antibody, IgG4, V domains shown)
VH: B1 VH with S49A, A61P, V93M
VL: B1 VL with A33Y, Y70F
notes: IgG4 (S241P), kappa
B5: VH2/Vκ12 (antibody, IgG4, V domains shown)
VH: B1 VH with S49A, A61P, V93M
VL: B1 VL with A33Y, W46L, V57I
notes: IgG4 (S241P), kappa
B6: VH2/Vκ9 (antibody, IgG4, V domains shown)
VH: B1 VH with S49A, A61P, V93M
VL: B1 VL with A33Y, W46L
notes: IgG4 (S241P), kappa
B7: VH2/Vκ10 (antibody, IgG4, V domains shown)
VH: B1 VH with S49A, A61P, V93M
VL: B1 VL with A33Y, V57I, Y70F
notes: IgG4 (S241P), kappa
B8: VH2/Vκ11 (antibody, IgG4, V domains shown)
VH: B1 VH with S49A, A61P, V93M
VL: B1 VL with A33Y, V57I, T84V
notes: IgG4 (S241P), kappa
B9: VH2/Vκ8 (antibody, IgG4, V domains shown)
VH: B1 VH with S49A, A61P, V93M
VL: B1 VL with A33Y, T84V
notes: IgG4 (S241P), kappa

Residue numbers refer to the chain shown, from its start. In names and notes the source's numbering stands. Several values for one entry are separate records, joined by “and”; a condition that tells them apart may be missing. Equal values may be shown once.

One experiment concerns the target T1, GST-CEACAM1 (human, UniProt P13688 35-141, limits assumed).
T1 construct: also called human CEACAM1-GST protein
T1 sequence: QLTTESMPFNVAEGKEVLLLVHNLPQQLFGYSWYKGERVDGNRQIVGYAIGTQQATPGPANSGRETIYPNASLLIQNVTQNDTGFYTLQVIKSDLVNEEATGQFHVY
Kind of experiment: competition ELISA vs parental murine antibody. Here is the method: The binding of the purified antibodies to human CEACAM1 was assessed in a competition ELISA assay. Nunc Immuno MaxiSorp 96 well flat bottom microtitre plates were pre-coated with 1 μg/ml of GST-CEACAM1 in 1×PBS, overnight at 4° C. The following day the plates were blocked for 1 hour at room temperature (“RT”) with 2% BSA/PBS before washing 3× with PBST pH 7.4. A 3-fold dilution series of the chimeric antibody chimeric antibody VH0/Vκ0, an irrelevant IgG4 antibody, and the humanized CEACAM1 antibodies from 100 μg/ml to 0.07 or 0.002 μg/ml were pre-mixed with a constant concentration of parental murine antibody (0.45 μg/ml final concentration), added to the plate and incubated for 1 hour at room temperature. Following 3×PBST washes, the binding of the parental murine CEACAM1 antibody was detected with an anti-mouse-HRP and TMB substrate. The reaction was stopped with 3 M HCl, absorbance read at 450 nm on a Dynex Technologies MRX TC II plate reader and the binding curves plotted. The binding of the humanized CEACAM antibody variants to CEACAM1 was compared to the chimeric antibody (VHO/Vκ0), which was included on each plate.
Regarding B1, the binding result is given as “no binding (tested: 100 µg/ml)”.
Still for that read-out and setting: next, B2: “no binding (tested: 100 µg/ml)”.
Still for that read-out and setting: the value for B3 was “no binding (tested: 100 µg/ml)”.

Another experiment deals with T2, CEACAM6 on transfected HeLa cells (human, UniProt P40199 35-320).
T2 construct: whole, on cells; also called HeLa-CEACAM6; HeLa C6
T2 sequence (looked up): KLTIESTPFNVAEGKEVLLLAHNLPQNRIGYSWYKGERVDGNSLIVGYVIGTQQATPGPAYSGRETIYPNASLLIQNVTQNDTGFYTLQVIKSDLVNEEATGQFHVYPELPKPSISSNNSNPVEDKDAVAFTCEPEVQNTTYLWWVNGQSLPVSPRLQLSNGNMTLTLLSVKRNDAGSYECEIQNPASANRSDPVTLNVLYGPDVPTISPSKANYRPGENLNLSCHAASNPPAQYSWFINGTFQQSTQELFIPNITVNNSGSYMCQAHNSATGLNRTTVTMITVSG
Kind of experiment: flow cytometry, HeLa-CEACAM6 transfectants, % positive cells. As to the method: Binding selectivity for CEACAM1 was tested for the 24 humanized antibody variants that bound to CEACAM1 (see Table 3), as well as the chimeric control antibody VH0/Vκ0, by flow cytometry on HeLa cells transfected with CEACAM1, 3, 5, 6 and 8. […] There was no evidence of any staining of the HeLa-CEACAM3 or HeLa-CEACAM8 transfectants. […] Due to its favorable affinity to and selectivity for CEACAM1 as well as its favorable expression level, VH1/Vκ8 was chosen as the framework for affinity maturation.
(In general: In flow cytometry, cells or beads pass a laser one at a time.)
For the molecule B4, the binding result was “no binding”.
In the case of B5, the binding result was “no binding”.
The same measure, in the same setting: the value for B6 was “no binding”; that for B7 was “no binding”; that for B8 was “no binding”.
On the same count and under the same terms, the value for B9 was “no binding”.

Another experiment concerns the target T3, CEACAM8 on transfected HeLa cells (human, UniProt P31997 35-320).
T3 construct: whole, on cells; also called HeLa-CEACAM8; HeLa C8
T3 sequence (looked up): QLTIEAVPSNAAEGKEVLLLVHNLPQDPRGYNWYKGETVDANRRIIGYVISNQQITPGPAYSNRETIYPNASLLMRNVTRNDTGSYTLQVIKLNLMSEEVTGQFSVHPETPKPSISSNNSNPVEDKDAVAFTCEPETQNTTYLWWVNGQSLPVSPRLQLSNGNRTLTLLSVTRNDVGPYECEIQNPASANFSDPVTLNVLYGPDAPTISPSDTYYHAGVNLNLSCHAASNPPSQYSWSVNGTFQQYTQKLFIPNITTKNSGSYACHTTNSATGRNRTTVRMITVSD
Put plainly: flow cytometry, transfected HeLa. The gist of the method:
(§1)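 For each HeLa line stably transfected with one CEACAM family member, staining is given as the measure of binding selectivity. Cultures were held at 37° C with 5.0% CO₂ in DMEM plus 10% fetal bovine serum. The test antibody, a fluorochrome-conjugated isotype-specific secondary antibody and DAPI as viability dye were applied, with acquisition on a Cytoflex and analysis in FlowJo.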
Regarding B4, the binding result is listed as “no binding”.
Regarding B5, the binding result was “no binding”.
Take B6: the binding result was “no binding”.
On the same count and under the same terms, the value for B7 was “no binding”; that for B8 was “no binding”.
Same read-out and setting: next, B9: “no binding”.

Another experiment has as its target T4, CEACAM3 on transfected HeLa cells (human, UniProt P40198 35-252).
T4 construct: whole, on cells; also called HeLa-CEACAM3; HeLa C3
T4 sequence (looked up): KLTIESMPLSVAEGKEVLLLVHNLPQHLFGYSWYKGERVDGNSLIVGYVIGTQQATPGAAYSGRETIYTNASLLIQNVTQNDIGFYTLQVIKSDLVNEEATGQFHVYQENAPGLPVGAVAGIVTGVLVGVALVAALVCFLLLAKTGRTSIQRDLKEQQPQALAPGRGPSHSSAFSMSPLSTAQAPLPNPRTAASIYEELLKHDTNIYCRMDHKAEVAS
Kind of experiment: flow cytometry, transfected HeLa. The gist of the method:
as §1
Consider B4, for which the binding result is on record as “no binding”.
On to B5, for which the binding result was “no binding”.
For the molecule B6, the binding result is “no binding”.
Still for that read-out and setting: next, B7: “no binding”; B8: “no binding”; B9: “no binding”.

The target of another experiment is T5, His-tagged CEACAM1 (human, UniProt P13688 35-428).
T5 construct: 45 kDa SPR analyte; also called CEACAM1-HIS; CEACAM1 analyte
T5 sequence: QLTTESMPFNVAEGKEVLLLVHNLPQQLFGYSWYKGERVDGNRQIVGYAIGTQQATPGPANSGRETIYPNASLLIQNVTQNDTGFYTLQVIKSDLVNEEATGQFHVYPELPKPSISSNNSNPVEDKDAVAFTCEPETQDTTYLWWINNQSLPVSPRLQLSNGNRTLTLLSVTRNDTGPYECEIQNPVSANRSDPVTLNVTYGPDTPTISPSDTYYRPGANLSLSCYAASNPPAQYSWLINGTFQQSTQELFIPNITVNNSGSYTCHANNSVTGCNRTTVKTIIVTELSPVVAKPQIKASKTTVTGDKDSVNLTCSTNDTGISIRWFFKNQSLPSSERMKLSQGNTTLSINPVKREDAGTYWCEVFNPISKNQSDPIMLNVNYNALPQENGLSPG
Kind of experiment: SPR multi-cycle, IgG captured. Here is the method:
As an alternative approach to assess the binding of the 36 antibody combinations and the three control antibodies to CEACAM1, a kinetic analysis was performed on a Biacore T200 (serial no. 1909913) running Biacore T200 Evaluation Software V2.0.1 (Uppsala, Sweden). All experiments were run at 25° C. with HBS-P+ running buffer (pH 7.4) (GE Healthcare, cat. no. BR100671). All kinetic experiments were performed using His-tagged CEACAM1 as the analyte. For all experiments, antibodies were immobilized onto a Series S Protein A sensor chip surface. For kinetic experiments, the amount of immobilized/captured ligand was limited to avoid mass transfer effects at the surface of the chip with the surface ideally having an analyte binding level (Rₘₐₓ) of 50-150 RUs. Using a MW of 45 kDa for the CEACAM1 analyte, 150 kDa for the antibody ligand (estimated value for IgG), 50 RU for Rmax and the stoichiometry (Sm) as 2 due to the ability of each antibody to bind 2 target molecules, a target response level of ˜75 RUs was set for capture of all the sample antibodies.
The signal from the reference channel Fc1 was subtracted from that of Fc2, Fc3 and Fc4 to correct for differences in non-specific binding to a reference surface, a global Rmax parameter was used in the 1-to-1 binding model. The relative Kp compared to […] was calculated by dividing the Kp of the humanized CEACAM antibody variants by that of the chimeric antibody VH0/Vκ0 on the same chip. A summary of the averaged relative Kp obtained for the 12 antibody combinations analyzed using multi cycle kinetics can be found in Table 5.
Regarding B4, the Kd worked out at 71 nM, the “average relative KD to VH0/Vκ0” value was 2.3, the koff is 0.0258 s⁻¹ and the kon turned out to be 362000 M⁻¹ s⁻¹. Besides, the “relative KD to VH0/Vκ0” value turned out to be 2.4.
In the case of B5, the Kd was found to be 152 nM, the “average relative KD to VH0/Vκ0” value was 2.7, the koff was found to be 0.0458 s⁻¹ and the kon is 302000 M⁻¹ s⁻¹. Also, the “relative KD to VH0/Vκ0” value came to 2.7.
In the case of B6, the Kd is 96 nM and 75 nM; the “average relative KD to VH0/Vκ0” value was 1.9.
B7: the Kd was found to be 61 nM, the “average relative KD to VH0/Vκ0” value worked out at 2.1, the koff is 0.0246 s⁻¹ and the kon was 407000 M⁻¹ s⁻¹. Besides, the “relative KD to VH0/Vκ0” value was determined as 2.1.
Consider B8, for which the dissociation constant Kd was determined as 77 nM, the “average relative KD to VH0/Vκ0” value stood at 2.7, the koff worked out at 0.0289 s⁻¹ and the kon worked out at 375000 M⁻¹ s⁻¹. The “relative KD to VH0/Vκ0” value turned out to be 2.5.
For B9, the Kd amounted to 125 nM, the “average relative KD to VH0/Vκ0” value is 2.3, the koff came to 0.0417 s⁻¹ and the kon turned out to be 334000 M⁻¹ s⁻¹. Besides, the “relative KD to VH0/Vκ0” value was 2.3.

Another experiment addresses T5, His-tagged CEACAM1. Kind of experiment: SPR single-cycle, IgG captured. The gist of the method:
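Biacore T200 single-cycle kinetics at 25° C in HBS-P+ (pH 7.4): antibodies (purified or HEK EBNA supernatant, 1 μg/ml) captured on Protein A to ~75 RU, His-tagged CEACAM1 analyte at 3.125–50 nM (5-point 2-fold) at 50 μl/min without regeneration. Reference channel Fc1 subtracted.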
As to B4, the Kd is 152 nM and the “relative KD to VH0/Vκ0” value was determined as 3.7.
For B5, the Kd came to 145 nM and the “relative KD to VH0/Vκ0” value is 3.5.
As to B1, the binding result is listed as “no binding (tested: 50 nM)”.
With B6, the Kd came out at 110 nM and the “relative KD to VH0/Vκ0” value was 2.7.
In the case of B2, the binding result is “no binding (tested: 50 nM)”.
Consider B7, for which the Kd was 131 nM and the “relative KD to VH0/Vκ0” value is 3.2.
Taken in the same sequence, the figures for B8 were 122 nM and 3.
For B9, the Kd amounted to 125 nM and the “relative KD to VH0/Vκ0” value amounted to 3.

Broadly, the Kd is the concentration at which binding is half-saturated. One may read the koff as the rate constant with which the complex falls apart. As usually defined, the kon is the second-order rate constant of association.

The record behind these values is patent publication US20250074980A1 (BRIGHAM AND WOMEN S HOSPITAL, published 2025).
